{"source": "paper PMC3163394", "about": "(Cell, 2011)", "proteins": {"B1": {"name": "Shb17 (H13A), catalytically inactive mutant of sedoheptulose-1,7-bisphosphatase (enzyme, S. cerevisiae)", "chain": "MPSLTPRCIIVRAGQTEWSKSGQYTGLTDLPLTPYGEGQMLRTGESVFRNNQFLNPDNITYIFTSPRLRARQTVDLVLKPLSDEQRAKIRVVVDDDLREWEYGDYEGMLTREIIELRKSRGLDKERPWNIWRDGCENGETTQQIGLRLSRAIARIQNLHRKHQSEGRASDIMVFAHGHALRYFAAIWFGLGVQKKCETIEEIQNVKSYDDDTVPYVKLESYRHLVDNPCFLLDAGGIGVLSYAHHNIDEPALELAGPFVSPPEEESQHGDV"}}, "molecular_target": "the molecule itself", "test": "crystal structure", "data": [{"protein": "B1", "values": [{"measurement": "stoichiometry N", "result": 2}]}]}
